Experimental data as given in article PMC5025757, “Sequences flanking the core-binding site modulate glucocorticoid receptor structure and activity”.

How the values were obtained:
GR DBD wild type [1] = biological target: T1, GR DBD wild type (rat, UniProt P06536 440-525); experiment: NMR (1D imino proton titration); G46 more broadened than with G/C; 25 C; EMSA: 20 mM Tris pH 7.5, 2 mM MgCl2, 1 mM EDTA, 10% glycerol, 0.3 mg/ml BSA, 4 mM DTT, 0.05 ug/ul dIdC, 1.25 nM DNA, 30 min; NMR: 20 mM Na phosphate, 100 mM NaCl, 1 mM DTT, pH 6.7, 5% D2O, imino titration at 25 C; settings: protein: recombinant; chain copies: 2; blunt
T1 sequence (P06536 440-525): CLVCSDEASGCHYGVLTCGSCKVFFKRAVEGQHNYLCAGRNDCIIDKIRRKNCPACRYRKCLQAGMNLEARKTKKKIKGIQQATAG

GR DBD wild type [2] = biological target: T1, GR DBD wild type; experiment: NMR (1D imino proton titration); 25 C; EMSA: 20 mM Tris pH 7.5, 2 mM MgCl2, 1 mM EDTA, 10% glycerol, 0.3 mg/ml BSA, 4 mM DTT, 0.05 ug/ul dIdC, 1.25 nM DNA, 30 min; NMR: 20 mM Na phosphate, 100 mM NaCl, 1 mM DTT, pH 6.7, 5% D2O, imino titration at 25 C; settings: protein: recombinant; chain copies: 2; blunt
GR DBD wild type [3] = biological target: T1, GR DBD wild type; experiment: EMSA; value only in figure; similar Kd for A/T and G/C flanks; EMSA: 20 mM Tris pH 7.5, 2 mM MgCl2, 1 mM EDTA, 10% glycerol, 0.3 mg/ml BSA, 4 mM DTT, 0.05 ug/ul dIdC, 1.25 nM DNA, 30 min; NMR: 20 mM Na phosphate, 100 mM NaCl, 1 mM DTT, pH 6.7, 5% D2O, imino titration at 25 C; settings: protein: recombinant; chain copies: 2; label: Cy5 5' of strand 1; blunt
GR DBD wild type [4] = biological target: T1, GR DBD wild type; experiment: NMR (15N-HSQC); EMSA: 20 mM Tris pH 7.5, 2 mM MgCl2, 1 mM EDTA, 10% glycerol, 0.3 mg/ml BSA, 4 mM DTT, 0.05 ug/ul dIdC, 1.25 nM DNA, 30 min; NMR: 20 mM Na phosphate, 100 mM NaCl, 1 mM DTT, pH 6.7, 5% D2O, imino titration at 25 C; settings: protein: recombinant; chain copies: 2; blunt
[5] = biological target: GR DBD A477T (dim mutant) (rat, UniProt P06536 440-525, A477T); experiment: EMSA; affinity lower than wild type; EMSA: 20 mM Tris pH 7.5, 2 mM MgCl2, 1 mM EDTA, 10% glycerol, 0.3 mg/ml BSA, 4 mM DTT, 0.05 ug/ul dIdC, 1.25 nM DNA, 30 min; NMR: 20 mM Na phosphate, 100 mM NaCl, 1 mM DTT, pH 6.7, 5% D2O, imino titration at 25 C; settings: protein: recombinant; chain copies: 2; label: Cy5 5' of strand 1; blunt
Chain of GR DBD A477T (dim mutant) (P06536 440-525 A477T): as the sequence (P06536 440-525) above, with A38T counted along it

GR DBD wild type [6] = biological target: T1, GR DBD wild type; experiment: EMSA; value only in figure; slightly higher affinity than A/T; EMSA: 20 mM Tris pH 7.5, 2 mM MgCl2, 1 mM EDTA, 10% glycerol, 0.3 mg/ml BSA, 4 mM DTT, 0.05 ug/ul dIdC, 1.25 nM DNA, 30 min; NMR: 20 mM Na phosphate, 100 mM NaCl, 1 mM DTT, pH 6.7, 5% D2O, imino titration at 25 C; settings: protein: recombinant; chain copies: 2; label: Cy5 5' of strand 1; blunt

B1: Cgt A-T NMR (dsDNA)
DNA 1: GCCAAGAACATTTTGTACGTCTCG
DNA 2: CGAGACGTACAAAATGTTCTTGGC
- binding result (GR DBD wild type [1]): binds

B2: Cgt G-C NMR (dsDNA)
DNA 1: GCCGAGAACATTTTGTACGCCTCG
DNA 2: CGAGGCGTACAAAATGTTCTCGGC
- binding result (GR DBD wild type [2]): binds

B3: A-Sgk-T EMSA (dsDNA)
DNA 1: ACCAAGAACATTTTGTCCGTCTC
DNA 2: GAGACGGACAAAATGTTCTTGGT
- binding result (GR DBD wild type [3]): binds

B4: Cgt A-C NMR (dsDNA)
DNA 1: GCCAAGAACATTTTGTACGCCTCG
DNA 2: CGAGGCGTACAAAATGTTCTTGGC
- binding result (GR DBD wild type [4]): binds

B5: A-Cgt-T EMSA (dsDNA)
DNA 1: ACCAAGAACATTTTGTACGTCTC
DNA 2: GAGACGTACAAAATGTTCTTGGT
- binding result (GR DBD wild type [3]): binds
- Kd [5]: 3.1 ± 0.4 µM

B6: G-Cgt-C EMSA (dsDNA)
DNA 1: ACCGAGAACATTTTGTACGCCTC
DNA 2: GAGGCGTACAAAATGTTCTCGGT
- binding result (GR DBD wild type [6]): binds
- Kd [5]: 3.5 ± 1.1 µM

B7: G-Sgk-C EMSA (dsDNA)
DNA 1: ACCGAGAACATTTTGTCCGCCTC
DNA 2: GAGGCGGACAAAATGTTCTCGGT
- binding result (GR DBD wild type [3]): binds
